Measured values published in article PMC8654305.

Molecular target: recombinant C-terminal StrepII-tagged ScSbtB (SbtB from Synechocystis sp. PCC 6803) (Synechocystis sp. PCC 6803), P73954
Assay: crystal structure
Conditions: remark: other sources report otherwise

stoichiometry N: 3
B1: recombinant C-terminal StrepII-tagged ScSbtB (SbtB from Synechocystis sp. PCC 6803), P73954 1-110 (natural protein)
chain: MAKPANKLVIVTEKILLKKIAKIIDESGAKGYTVMNTGGKGSRNVRSSGQPNTSDIEANIKFEILTETREMAEEIADRVAVKYFNDYAGIIYICSAEVLYGHTFCGPEGC
